Laboratory results reported in a protein production outcome set (Wang et al. 2014).

Test: label from the status in PepcDB records
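Note: failed if final PepcDB status was selected cloned or expressed and not failed if soluble or beyond.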

Row | Sequence | protein production
1 | AIAASALEQFVNNVRQLSAQGQMTQLCELINKSGELLAKNLSHLDTVLGALDIQEHSLGVLAVLFVKFSMPNIPDFETLFSQVQLFISTCNGEHIRYATDTFAGLCHQLTNALVERKQPLRGISILKQAIDKMQMNTNQLTSVHADLCQLCLLAKCFKPAVPFLELDMMDICKENGAYDAKHFLCYYYYGGMIYTGLKNFERALYFFEQAITTPAMAVSHIMLEAYKKYILVSLILHGKVQQLPKYTSQIVGRFIKPLSNAYHELAQIYATNNPAELRALVNKHSETFTRDNNSGLVKQCLSSLYKKNIQRLTKTFLTLSLQDMASRVQLSGPQEAEKYVLHMIEDGEIYASINQKDGMVCFHDNPEKYNNPAMLHKIDQEML | not failed
2 | MHATQAILQGLRPVWTRPARLILTTPMSTTPPVPSPLQRGTLKQRRNTLPKRSNRHRDGRVYYANLAATMIARDNLRAAQIILAESHRRHPAFCDTRLMEAGVHLSLGRSDAAEAALRICHEAEPDEQRAVSGLVEIALERADATTARQLLEDQPQTPTFDLARARIALFNGDPSAARTFLDAHPAEGSTTVLAAFADAMEGDLDTAIARLNAQANRTDAALALAALQAAAGVVPDAAPSSPTASFFTALNPAANDDRRAALNAAEGFEQGFTAAGLDAVPQGSPDLALGVVFRLWGFHGAALERLVAASNDDPENPLAAYFVAVAHLKLGQNAQAEAALAKARTAAPSFFAANIAAAELRIRAGAPQEALAMLKAAVAVREDPGALMRIGLIEESFGDDDTARAAYERFVAVQPGSYIGYNQLAWHLARRGIELDRAQELAERANTLQPENASVLDTLGWIAFLRGDGAGAIERLRAAHEISQGDIPIISFHLAQAELKYGETPRGIALLQDLTAAGPAAYPFSQEATDILAKALQ | failed
3 | MPECRNCGATLREEYRFCPMCATPQTDEASRRLNQYIEQRATKRQASGGTASSNGAENDGTLRGRLQYAAGYVAIVLGLATVTAVAGVFFLLAGLFLLPPIHGRIESAVGRRLGPAPTAGVAGVLAAFGLVVFVFL | failed
4 | MKKRLLLFILVLGVCLFTSCGNFVKTNIYFSAAESAFDSGKYEDAIKYYDKVIEADSGNAMAYLGKGLALDALGKYEEALEFFDKAIEINKDLAKAYNAKGTTLASLERYEESLENFKKAAELKPKNSAYQNDVAYGLNNLGRFEEAIQYAEKALKLNPRSGVAYSNKGFALDALGKLDEAIECYDKAIELSPTYTNAYYNKSIAVFKMGKTEEAIELLDKVLEIDPDDLDAITSKGYCLNELGKYEKAIECFDTAIEKYPKDPYPYVCKATSLYYLGKYDNALEECNKAIKLEYTFPDSYIWKAKILVEKGDIEEARKSCDEFLAIAEDASVYDMKGQIYLHEYNYPEAIKLFDKAIEVDPSYEDSYINKIYCLYLQKNYKECIEFATKVQTIFPNSADIPWYIGDCYSIMMEPEKAIEYLKKAHELNPKDVGILTSIAWEYYSLEDYAKASEYAEKAAEISADDESVKYIREKLENQKLPEAEQIVEFVKNNYLYYDKIANFEALANEFKAKGEVGVKDICNFIESIRQKDDMFTFVIHGDDYDLLKYEESISQVTSQQLEPNIHYIKIKSFTASVSWEFKEIIDSIENPEEKVLVIDLRDNLGGLATSSADILDYLLPACTTSYIVYRDGYMYSYYSDAAQTKFKKILVLVNEYSASSSEILALGLKKHLNNVVIIGRPTVGKGVGQLVYENKSKKYMIYLVSFYWNVMEENILGKRIEPDVYVNSSSDAAYMNEVKRQAAR | failed
5 | MNRNRQLSDPSRFSGMAAGFFMATLGAVLFSGKAIVVKFTYRYGIDAVTLIAFRMLFAMPFFAAVAWWQARRAARGELPVLSWRERGQLCALGLLGYYLSSFLDFLGLRHITAGLERLILFLSPSLVVLLSAWWLKRPVTRRQWGAMLLSYVGVALVLSHDLSQSGAGADVLTGSFFVFCSALSYSVYLICSGELVERVGATRLVAYAMLVSCVASLIQFFLIHPASVLVQPAAVYGYSVIHATVNTVLPVFMLMWAVALVGAPTASLLGMVGPVSVLFLAAWFLDEPITVWQLAGTALVLAGVFVLAGRRRPARP | failed
6 | MGIIERIKEIEAEMARTQKNKATEYHLGQLKAKIAKLRTQLLEPPKGASGGGEGFEVTKYGHGRVALIGFPSVGKSTLLTMLTGTHSEAASYEFTTLTCIPGVIHYNDTKIQLLDLPGIIEGASEGKGRGRQVIAVAKSSDLVLMVLDASKSEGHRQILTKELEAVGLRLNKTPPQIYFKKKKTGGISFNTTAPLTHIDEKLCYQILHEYKIHNAEVLFRENATVDDFIDVIEGNRKYIKCVYVYNKIDVVGIDDVDRLSRQPNSIVISCNLKLNLDRLLARMWDEMGLVRVYSKPQGQQPDFDEPFVLSSDRGGCTVEDFCNHVHRTLVKDMKYALVWGTSTRHNPQNCGLSQHLEDEDVVQIVKKKERDEGGRGRFKSHSNAPARIADREKKAPLKQ | failed
7 | AIKHVKGNGKRTLYIFSDPDCPYCQRLEKELTAVDNVTIYLFLFPLTTLHPNAETIATQIWCSKNQYQAWQDYLLNHKAPTASQKCSTPIQKNLALGQKLNINGTPTMYLKNGERIAGAMQAGQLNTLLDQAQ | failed
8 | MAPVLENRRARHDYEILETYEAGIALKGTEVKSLRAGKVDFTGSFARFEDGELYLENLYIAPYEKGSYANVDPRRKRKLLLHKHELRRLLGKVEQKGLTLVPLKIYFNERGYAKVLLGLARGKKAYEKRREDKKEAVRRALEEL | not failed
9 | MEAIDQLVGQWQKDGLSPSQVAEKFSKCVLYVTCEPCIMCASALSFLGIKEVYYGCPNDKFGGCGSILSLHLGSEEAQRGKGYKCRGGIMAEEAVSLFKCFYEQGNPNAPKPHRPVVQRERT | failed
10 | MNATSTAPSSRHTLRSLAGDVFELLGSMRFAVSLLMFICIASIVGTVLAQNRPSNVYVDQFGPFWFEVFDKFSIWHVYNSWWFLLIMTFLVVSTSVCLIRNTPKMLREARSFREHVRASSLRAFPHRLQTEVAQPVSETAQGVTGLLGQFGYAVRERRDGDGIMLAAKKGSANRLGYIFAHSAMVIICIGGLLDSEAPVRLQVLFDGKQPIAINGEMARADIPDSALLSVNNPSYRANLWVPEGSNASLATIAVNDRSLVQPLPFSLRLKKFTVDYYSTGMPSRFLSLVEVTDPETGEMFDQTIEVNEPLRYKGVTVYQSSFDDGGSSVSLTGYPLVGAGDTPFKVDGVVGQTSEIGARIGDQPKSMKIEFTALRVINVEDFSGGQPGAQNLSLREHVASVAGSAAGKKNENLRNVGPRIDYKLIDDAGQAHEFQNYMLPVVLDGVPVFLSAVRNNPADDFQYLRIPADDQGSLAEFMRLRAALADPAARQEAARRFAERNAPSGTDRQPLETAAQRALATFAEGGLQAIADFLQANTAPDDLERAAGIVVRLVGASVAELRDIARARAGLPALPQSGPQADEAAQWSRVAVAALSDLAFYPAPVMFSLTDFQERQGSVFQVARTPGKNAVYLGCVLLILGIFAMFYIRDRRVWVWVKPAADGAGSSIEAAMTSQKRTLDFNQEFDRLREALLRQSKP | failed
11 | MDALLGPPESSWEGADRSDADLRWARGGREARDRRDQLLPALHALNDRVGWISEGALDYVCRRLTVPPAEAYGVATFYAMFSVRPRPATVLHVCTDLACTAAGASRLCAAVESRLGPESGVKLERSPCLGLCERAPATLVIRAGESARPAQEDTPARPAFEDEAVQAEGGSGGAAPGDGGGTSRSSEAESGGGKGRRGRNTLHATAICAPATPDRAIAAATAPESAPTEPAPEAAVPQAGDPTLTLLHRIGTTDPTSLDDYRAHGGYTALRRAFALGPAAVIREVTDAGLVGRGGAAFPTGRKWQATAAQPDHPHYLVCNADESEPGTFKDRVLMEGDPYALVEAMTIAAYATGAHRGYLYLRGEYPRALARLTHAIEQARTRGLLGDDVLGQGYAFDIEIRRGAGAYICGEETALFNSIEGRRGEPRSKPPFPVEKGLFGKPTVENNVETLVNVLPILTMGAEAYAAIGTPTSTGPKLFCVSGTVARPGVYELPFGATLGELLALAGVRDNLRAVLLGGAAGGFVRPDELDIPLTFEGTREAGTTLGSGVVMAFDDTVPLPRLLLRIAEFFRDESCGQCVPCRVGTVRQEEALHRIADRTGAAAADDIALLREVGRAMRDASICGLGQTAWNAVESAIDRLGAYE | failed
12 | MDTNGVLYAANMTNALAKEIPESKWDIQLIPELGTLRKLFIHIVRVRDVYRDGLKTGSIKFPGRLASDEHRLLDELERSMEELVFEFKQTTFNSIKMGENYLSIMELLGTVIQHEGIHQGQYYVALKQSGINLPKQWVQDWHM | not failed
13 | SAATMKKAAAEDVNVTFEDQQKINKFARNTSRITELKEEIEVKKKQLQNLEDACDDIMLADDDCLMIPYQIGDVFISHSQEETQEMLEEAKKNLQEEIDALESRVESIQRVLADLKVQLYAKFGSNINLEADES | failed
